The chains are these.
B1: Pistol ribozyme (parent)
chain: GGGUCGUUGUUCCAUAAUCGCGUGGAUAUGGCACGCAAGUUUCUACCGGGCACCGUAAAUGUCCGACUGGAGCCGUUCGGGCGGCUAUAAACAGACCUCAGGCCCGAAGCGUGGCGGCACCUGCCGCCGGUGGUAAAAAAGAUCGGAAGAGCACACGUCU

In the data set the parent is B1. Kind of data set: aptazyme ON/OFF ratio, guanine; higher = stronger switching; co-transcriptional cleavage with and without guanine.
Take GGGUCGUGGAAUAAUAAUCGCGUGGAUAUGGCACGCAAGUUUCUACCGGGCACCGUAAAUGUCCGACUGGAGCCGUUCGGGCGGCUAUAAACAGACCUCAGGCCCGAAGCGUGGCGGCACCUGCCGCCGGUGGUAAAAAAGAUCGGAAGAGCACACGUCU [U8G U10A U11A C12U C13A]: the “aptazyme ON/OFF ratio” value came to 1.3.

On to GGGUCGGCAUUUAAUAAUCGCGUGGAUAUGGCACGCAAGUUUCUACCGGGCACCGUAAAUGUCCGACUGGAGCCGUUCGGGCGGCUAUAAACAGACCUCAGGCCCGAAGCGUGGCGGCACCUGCCGCCGGUGGUAAAAAAGAUCGGAAGAGCACACGUCU [U7G U8C G9A C12U C13A], for which the “aptazyme ON/OFF ratio” value is 1.03.

For GGGUCGAAGUCAUAUAAUCGCGUGGAUAUGGCACGCAAGUUUCUACCGGGCACCGUAAAUGUCCGACUGGAGCCGUUCGGGCGGCUAUAAACAGACCUCAGGCCCGAAGCGUGGCGGCACCUGCCGCCGGUGGUAAAAAAGAUCGGAAGAGCACACGUCU [U7A U8A U11C C12A C13U], the “aptazyme ON/OFF ratio” value worked out at 1.69.

Consider GGGUCGUACCUCGAUAAUCGCGUGGAUAUGGCACGCAAGUUUCUACCGGGCACCGUAAAUGUCCGACUGGAGCCGUUCGGGCGGCUAUAAACAGACCUCAGGCCCGAAGCGUGGCGGCACCUGCCGCCGGUGGUAAAAAAGAUCGGAAGAGCACACGUCU [U8A G9C U10C C13G], for which the “aptazyme ON/OFF ratio” value was determined as 1.01.

Turning to GGGUCGCCCGUCGAUAAUCGCGUGGAUAUGGCACGCAAGUUUCUACCGGGCACCGUAAAUGUCCGACUGGAGCCGUUCGGGCGGCUAUAAACAGACCUCAGGCCCGAAGCGUGGCGGCACCUGCCGCCGGUGGUAAAAAAGAUCGGAAGAGCACACGUCU [U7C U8C G9C U10G C13G], the “aptazyme ON/OFF ratio” value was 1.1.

For GGGUCGCUUGUUAAUAAUCGCGUGGAUAUGGCACGCAAGUUUCUACCGGGCACCGUAAAUGUCCGACUGGAGCCGUUCGGGCGGCUAUAAACAGACCUCAGGCCCGAAGCGUGGCGGCACCUGCCGCCGGUGGUAAAAAAGAUCGGAAGAGCACACGUCU [U7C G9U U10G C12U C13A], the “aptazyme ON/OFF ratio” value came out at 1.2.

GGGUCGGUGUCCCAUAAUCGCGUGGAUAUGGCACGCAAGUUUCUACCGGGCACCGUAAAUGUCCGACUGGAGCCGUUCGGGCGGCUAUAAACAGACCUCAGGCCCGAAGCGUGGCGGCACCUGCCGCCGGUGGUAAAAAAGAUCGGAAGAGCACACGUCU [U7G U11C]: the “aptazyme ON/OFF ratio” value is 1.11.

In the case of GGGUCGCCUUAGUAUAAUCGCGUGGAUAUGGCACGCAAGUUUCUACCGGGCACCGUAAAUGUCCGACUGGAGCCGUUCGGGCGGCUAUAAACAGACCUCAGGCCCGAAGCGUGGCGGCACCUGCCGCCGGUGGUAAAAAAGAUCGGAAGAGCACACGUCU [U7C U8C G9U U11A C12G C13U], the “aptazyme ON/OFF ratio” value was determined as 1.13.

GGGUCGGUACGAUAUAAUCGCGUGGAUAUGGCACGCAAGUUUCUACCGGGCACCGUAAAUGUCCGACUGGAGCCGUUCGGGCGGCUAUAAACAGACCUCAGGCCCGAAGCGUGGCGGCACCUGCCGCCGGUGGUAAAAAAGAUCGGAAGAGCACACGUCU [U7G G9A U10C U11G C12A C13U]: the “aptazyme ON/OFF ratio” value worked out at 1.11.

With GGGUCGUUCCGGGAUAAUCGCGUGGAUAUGGCACGCAAGUUUCUACCGGGCACCGUAAAUGUCCGACUGGAGCCGUUCGGGCGGCUAUAAACAGACCUCAGGCCCGAAGCGUGGCGGCACCUGCCGCCGGUGGUAAAAAAGAUCGGAAGAGCACACGUCU [G9C U10C U11G C12G C13G], the “aptazyme ON/OFF ratio” value is 1.13.

With GGGUCGUAUUGUUAUAAUCGCGUGGAUAUGGCACGCAAGUUUCUACCGGGCACCGUAAAUGUCCGACUGGAGCCGUUCGGGCGGCUAUAAACAGACCUCAGGCCCGAAGCGUGGCGGCACCUGCCGCCGGUGGUAAAAAAGAUCGGAAGAGCACACGUCU [U8A G9U U11G C12U C13U], the “aptazyme ON/OFF ratio” value was 1.5.

With GGGUCGUCAACUCAUAAUCGCGUGGAUAUGGCACGCAAGUUUCUACCGGGCACCGUAAAUGUCCGACUGGAGCCGUUCGGGCGGCUAUAAACAGACCUCAGGCCCGAAGCGUGGCGGCACCUGCCGCCGGUGGUAAAAAAGAUCGGAAGAGCACACGUCU [U8C G9A U10A U11C C12U], the “aptazyme ON/OFF ratio” value came to 1.09.

Consider GGGUCGGAGGGUCAUAAUCGCGUGGAUAUGGCACGCAAGUUUCUACCGGGCACCGUAAAUGUCCGACUGGAGCCGUUCGGGCGGCUAUAAACAGACCUCAGGCCCGAAGCGUGGCGGCACCUGCCGCCGGUGGUAAAAAAGAUCGGAAGAGCACACGUCU [U7G U8A U10G U11G C12U], for which the “aptazyme ON/OFF ratio” value is 1.26.

Take GGGUCGACGUCUAAUAAUCGCGUGGAUAUGGCACGCAAGUUUCUACCGGGCACCGUAAAUGUCCGACUGGAGCCGUUCGGGCGGCUAUAAACAGACCUCAGGCCCGAAGCGUGGCGGCACCUGCCGCCGGUGGUAAAAAAGAUCGGAAGAGCACACGUCU [U7A U8C U11C C12U C13A]: the “aptazyme ON/OFF ratio” value was found to be 1.28.

For GGGUCGGGCAAAUAUAAUCGCGUGGAUAUGGCACGCAAGUUUCUACCGGGCACCGUAAAUGUCCGACUGGAGCCGUUCGGGCGGCUAUAAACAGACCUCAGGCCCGAAGCGUGGCGGCACCUGCCGCCGGUGGUAAAAAAGAUCGGAAGAGCACACGUCU [U7G U8G G9C U10A U11A C12A C13U], the “aptazyme ON/OFF ratio” value was found to be 1.04.

As for GGGUCGCAGUUAAAUAAUCGCGUGGAUAUGGCACGCAAGUUUCUACCGGGCACCGUAAAUGUCCGACUGGAGCCGUUCGGGCGGCUAUAAACAGACCUCAGGCCCGAAGCGUGGCGGCACCUGCCGCCGGUGGUAAAAAAGAUCGGAAGAGCACACGUCU [U7C U8A C12A C13A], the “aptazyme ON/OFF ratio” value turned out to be 1.34.

GGGUCGGAGACUGAUAAUCGCGUGGAUAUGGCACGCAAGUUUCUACCGGGCACCGUAAAUGUCCGACUGGAGCCGUUCGGGCGGCUAUAAACAGACCUCAGGCCCGAAGCGUGGCGGCACCUGCCGCCGGUGGUAAAAAAGAUCGGAAGAGCACACGUCU [U7G U8A U10A U11C C12U C13G]: the “aptazyme ON/OFF ratio” value is 1.23.

For the variant GGGUCGCUAUCGAAUAAUCGCGUGGAUAUGGCACGCAAGUUUCUACCGGGCACCGUAAAUGUCCGACUGGAGCCGUUCGGGCGGCUAUAAACAGACCUCAGGCCCGAAGCGUGGCGGCACCUGCCGCCGGUGGUAAAAAAGAUCGGAAGAGCACACGUCU [U7C G9A U11C C12G C13A], the “aptazyme ON/OFF ratio” value is 1.29.

These data come from the RNAGym collection of RNA variant scans (doi:10.1021/acssynbio.7b00057).
